Results reported in US20150017154A1 (NEXVET AUSTRALIA, published 2015).

What was measured:
mouse NGF [1] = biological target: T1, mouse NGF (mouse, UniProt P01139 122-241, limits assumed); assay: binding ELISA to mouse NGF, CHO supernatant dilutions
T1 construct: Coated on ELISA plates; also called murine NGF

[2] = biological target: T2, complement C1q (from human serum) (human, UniProt P02745 23-245; P02746 28-253; P02747 29-245); assay: C1q ELISA: antibody captured on NGF-coated plate, human serum, anti-C1q-HRP
T2 construct: Native C1q in human serum diluted 1/100

[3] = biological target: NGF (species not stated, TF-1 cell proliferation assay); assay: cell-based or functional assay
[4] = biological target: T2, complement C1q (from human serum); assay: C1q ELISA: antibody captured on mouse NGF-coated plate, human serum, anti-C1q-HRP
Description: CHO cell transfectant supernatants from Example 2 were incubated with plates coated with […] NGF to capture the antibodies. The plates were washed and then incubated with human serum and bound complement C1q was measured by binding of anti-human C1q polyclonal antibody HRP and developed as above.
Plates were coated with 100 μl/well of 5 μg/ml mouse NGF and blocked with 5% BSA/PBS. Coated wells were incubated for 1 hour at room temperature with cell culture supernatants, containing recombinant caninised anti-NGF IgG, diluted in PBS/1% BSA (100 μl/well). The plates were washed and incubated for 1 hour at room temperature with 100 μl/well of human serum diluted 1/100 in veronal buffered saline containing 0.5 mM MgCl₂, 2 mM CaCl₂, 0.05% Tween-20, 0.1% gelatin and 0.5% BSA. After washing, plates were incubated with 100 μl of a 1/800 dilution of sheep anti-C1q-HRP (Serotec) in PBS/1% BSA. After washing, plates were developed by the addition of 100 μl TMB substrate (Thermo Scientific). Development was stopped by the addition of 100 μl of 2N H₂SO₄ and absorbance read at 450 nm.

mouse NGF [5] = biological target: T1, mouse NGF; assay: binding ELISA to mouse NGF, CHO supernatants undiluted and 1/100
Description: A comparison of the binding of N-glycosylated and aglycosylated variants of anti-canine-NGF monoclonal antibodies to NGF with HCB and HCC heavy chain isotypes was carried out. Expression vectors encoding the light and heavy chain pairs described by SEQ ID NO:5 and SEQ ID NO:7 (HCB), SEQ ID NO:5 and SEQ ID NO:16 (HCB*), SEQ ID NO:5 and SEQ ID NO:8 (HCC), or SEQ ID NO:5 and SEQ ID NO:17 (HCC*) were co-transfected into CHO cells and the supernatants compared by binding ELISA to mouse NGF.

T1 sequence (P01139 122-241 limits assumed): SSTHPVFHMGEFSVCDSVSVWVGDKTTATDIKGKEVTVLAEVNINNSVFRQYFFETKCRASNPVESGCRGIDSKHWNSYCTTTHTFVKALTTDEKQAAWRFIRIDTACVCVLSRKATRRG
T2 sequence (P02745 23-245 limits assumed, chain 1 of 3): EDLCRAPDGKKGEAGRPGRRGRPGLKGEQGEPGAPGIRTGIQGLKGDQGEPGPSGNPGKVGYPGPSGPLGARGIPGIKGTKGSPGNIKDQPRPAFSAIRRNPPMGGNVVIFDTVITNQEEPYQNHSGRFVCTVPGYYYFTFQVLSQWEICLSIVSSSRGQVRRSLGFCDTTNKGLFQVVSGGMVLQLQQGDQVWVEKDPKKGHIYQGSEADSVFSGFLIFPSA
T2 sequence (P02746 28-253 limits assumed, chain 2 of 3): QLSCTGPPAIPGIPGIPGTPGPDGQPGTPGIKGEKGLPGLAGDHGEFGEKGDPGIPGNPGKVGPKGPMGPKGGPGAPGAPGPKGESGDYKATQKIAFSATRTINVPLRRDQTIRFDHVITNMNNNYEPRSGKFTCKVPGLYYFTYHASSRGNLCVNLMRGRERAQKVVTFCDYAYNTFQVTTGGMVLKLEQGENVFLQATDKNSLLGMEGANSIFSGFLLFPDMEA
T2 sequence (P02747 29-245 limits assumed, chain 3 of 3): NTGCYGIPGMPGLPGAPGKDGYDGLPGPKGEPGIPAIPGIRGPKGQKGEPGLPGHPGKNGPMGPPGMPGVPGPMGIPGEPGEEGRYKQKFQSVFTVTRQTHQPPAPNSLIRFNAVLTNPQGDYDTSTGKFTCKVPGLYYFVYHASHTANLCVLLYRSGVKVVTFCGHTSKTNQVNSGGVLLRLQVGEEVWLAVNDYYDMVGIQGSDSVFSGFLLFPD

Binder	binding result (mouse NGF [1])	binding result [2]	IC50 in the TF-1 NGF neutralisation assay [3] [nM]	binding result [4]	binding result (mouse NGF [5])
variant caninised anti-NGF antibody (caN2) with light chain SEQ ID NO:10 (VL2 and canine kappa constant domain) and heavy chain SEQ ID NO:11 (HCA variant-VH2 … (antibody, also called anti-canine NGF monoclonal antibody (canine HCA type heavy chain)) heavy: EVQLVESGGDLVNPGGTLTLSCVVSGFSLTNNNVNWVRQALGRGLEWVGGVWAGGATDYNSALKSRLTITRDTSKSTVFLQMHSLRSEDTATYYCARDGGYSSSTLYAMDAWGQGTLVTVSSASTTAPSVFPLAPSCGSTSGSTVALACLVSGYFPEPVTVSWNSGSLTSGVHTFPSVLQSSGLHSLSSMVTVPSSRWPSETFTCNVVHPASNTKVDKPVFNECRCTDTPPCPVPEPLGGPSVLIFPPKPKDILRITRTPEVTCVVLDLGREDPEVQISWFVDGKEVHTAKTQSREQQFNGTYRVVSVLPIEHQDWLTGKEFKCRVNHIDLPSPIERTISKARGRAHKPSVYVLPPSPKELSSSDTVSITCLIKDFYPPDIDVEWQSNGQQEPERKHRMTPPQLDEDGSYFLYSKLSVDKSRWQQGDPFTCAVMHETLQNHYTDLSLSHSPGK light: DIVMTQSPASLSLSQEEKVTITCRASEDIYNALAWYQQKPGQAPKLLIYNTDTLHTGVPSRFSGSGSGTEFSLTISSLEPEDVAVYYCQHYFHYPRTFGAGTKVELKRNDAQPAVYLFQPSPDQLHTGSASVVCLLNSFYPKDINVKWKVDGVIQDTGIQESVTEQDKDSTYSLSSTLTMSSTEYLSHELYSCEITHKSLPSTLIKSFQRSECQRVD	binds	no binding (tested: 4, 2 and 1 ug/ml)	0.013		
caninised anti-NGF antibody comprising the caN-HCB heavy chain and the caN-kLC light chain (antibody, Tested as CHO cell transfectant supernatant; also called caN-HCB+caN-kLC1) heavy: EVQLVESGGDLVNPGGTLTLSCVVSGFSLTNNNVNWVRQALGRGLEWVGGVWAGGATDYNSALKSRLTITRDTSKSTVFLKMHSLQSEDTATYYCARDGGYSSSTLYAMDAWGQGTLVTVSSASTTAPSVFPLAPSCGSTSGSTVALACLVSGYFPEPVTVSWNSGSLTSGVHTFPSVLQSSGLYSLSSMVTVPSSRWPSETFTCNVAHPASKTKVDKPVPKRENGRVPRPPDCPKCPAPEMLGGPSVFIFPPKPKDTLLIARTPEVTCVVVDLDPEDPEVQISWFVDGKQMQTAKTQPREEQFNGTYRVVSVLPIGHQDWLKGKQFTCKVNNKALPSPIERTISKARGQAHQPSVYVLPPSREELSKNTVSLTCLIKDFYPPDIDVEWQSNGQQEPESKYRTTPPQLDEDGSYFLYSKLSVDKSRWQRGDTFICAVMHEALHNHYTQESLSHSPGK light: DIQMTQSPASLSLSQEEKVTITCRASEDIYNALAWYQQKPGQAPKLLIYNTDTLHTGVPSRFSGSGSGTEYSLTINSLESEDVAVYFCQHYFHYPRTFGAGTKVELKRNDAQPAVYLFQPSPDQLHTGSASVVCLLNSFYPKDINVKWKVDGVIQDTGIQESVTEQDKDSTYSLSSTLTMSSTEYLSHELYSCEITHKSLPSTLIKSFQRSECQRVD	binds			binds	
caninised anti-NGF antibody comprising the caN-HCC heavy chain and a caN-kLC light chain (antibody, Tested as CHO cell transfectant supernatant; also called C-HCC; caN-HCC+caN-kLC1) heavy: EVQLVESGGDLVNPGGTLTLSCVVSGFSLTNNNVNWVRQALGRGLEWVGGVWAGGATDYNSALKSRLTITRDTSKSTVFLKMHSLQSEDTATYYCARDGGYSSSTLYAMDAWGQGTLVTVSSASTTAPSVFPLAPSCGSQSGSTVALACLVSGYIPEPVTVSWNSVSLTSGVHTFPSVLQSSGLYSLSSMVTVPSSRWPSETFTCNVAHPATNTKVDKPVAKECECKCNCNNCPCPGCGLLGGPSVFIFPPKPKDILVTARTPTVTCVVVDLDPENPEVQISWFVDSKQVQTANTQPREEQSNGTYRVVSVLPIGHQDWLSGKQFKCKVNNKALPSPIEEIISKTPGQAHQPNVYVLPPSRDEMSKNTVTLTCLVKDFFPPEIDVEWQSNGQQEPESKYRMTPPQLDEDGSYFLYSKLSVDKSRWQRGDTFICAVMHEALHNHYTQISLSHSPGK light: DIQMTQSPASLSLSQEEKVTITCRASEDIYNALAWYQQKPGQAPKLLIYNTDTLHTGVPSRFSGSGSGTEYSLTINSLESEDVAVYFCQHYFHYPRTFGAGTKVELKRNDAQPAVYLFQPSPDQLHTGSASVVCLLNSFYPKDINVKWKVDGVIQDTGIQESVTEQDKDSTYSLSSTLTMSSTEYLSHELYSCEITHKSLPSTLIKSFQRSECQRVD				binds	binds
caninised anti-NGF antibody comprising the caN-HCD heavy chain and caN-kLC light chain (antibody, also called D-HCD; caninised HCD type antibody) heavy: EVQLVESGGDLVNPGGTLTLSCVVSGFSLTNNNVNWVRQALGRGLEWVGGVWAGGATDYNSALKSRLTITRDTSKSTVFLKMHSLQSEDTATYYCARDGGYSSSTLYAMDAWGQGTLVTVSSASTTAPSVFPLAPSCGSTSGSTVALACLVSGYFPEPVTVSWNSGSLTSGVHTFPSVLQSSGLYSLSSTVTVPSSRWPSETFTCNVVHPASNTKVDKPVPKESTCKCISPCPVPESLGGPSVFIFPPKPKDILRITRTPEITCVVLDLGREDPEVQISWFVDGKEVHTAKTQPREQQFNSTYRVVSVLPIEHQDWLTGKEFKCRVNHIGLPSPIERTISKARGQAHQPSVYVLPPSPKELSSSDTVTLTCLIKDFYPPEIDVEWQSNGQPEPESKYHTTAPQLDEDGSYFLYSKLSVDKSRWQQGDTFTCAVMHEALQNHYTDLSLSHSPGK light: DIQMTQSPASLSLSQEEKVTITCRASEDIYNALAWYQQKPGQAPKLLIYNTDTLHTGVPSRFSGSGSGTEYSLTINSLESEDVAVYFCQHYFHYPRTFGAGTKVELKRNDAQPAVYLFQPSPDQLHTGSASVVCLLNSFYPKDINVKWKVDGVIQDTGIQESVTEQDKDSTYSLSSTLTMSSTEYLSHELYSCEITHKSLPSTLIKSFQRSECQRVD				no binding	
aglycosylated variant anti-canine-NGF monoclonal antibody HCB* (SEQ ID NO:5 and SEQ ID NO:16) (antibody, Tested as CHO cell transfectant supernatant) heavy: EVQLVESGGDLVNPGGTLTLSCVVSGFSLTNNNVNWVRQALGRGLEWVGGVWAGGATDYNSALKSRLTITRDTSKSTVFLKMHSLQSEDTATYYCARDGGYSSSTLYAMDAWGQGTLVTVSSASTTAPSVFPLAPSCGSTSGSTVALACLVSGYFPEPVTVSWNSGSLTSGVHTFPSVLQSSGLYSLSSMVTVPSSRWPSETFTCNVAHPASKTKVDKPVPKRENGRVPRPPDCPKCPAPEMLGGPSVFIFPPKPKDTLLIARTPEVTCVVVDLDPEDPEVQISWFVDGKQMQTAKTQPREEQFAGTYRVVSVLPIGHQDWLKGKQFTCKVNNKALPSPIERTISKARGQAHQPSVYVLPPSREELSKNTVSLTCLIKDFYPPDIDVEWQSNGQQEPESKYRTTPPQLDEDGSYFLYSKLSVDKSRWQRGDTFICAVMHEALHNHYTQESLSHSPGK light: DIQMTQSPASLSLSQEEKVTITCRASEDIYNALAWYQQKPGQAPKLLIYNTDTLHTGVPSRFSGSGSGTEYSLTINSLESEDVAVYFCQHYFHYPRTFGAGTKVELKRNDAQPAVYLFQPSPDQLHTGSASVVCLLNSFYPKDINVKWKVDGVIQDTGIQESVTEQDKDSTYSLSSTLTMSSTEYLSHELYSCEITHKSLPSTLIKSFQRSECQRVD		no binding			binds
aglycosylated variant anti-canine-NGF monoclonal antibody HCC* (SEQ ID NO:5 and SEQ ID NO:17) (antibody, Tested as CHO cell transfectant supernatant) heavy: EVQLVESGGDLVNPGGTLTLSCVVSGFSLTNNNVNWVRQALGRGLEWVGGVWAGGATDYNSALKSRLTITRDTSKSTVFLKMHSLQSEDTATYYCARDGGYSSSTLYAMDAWGQGTLVTVSSASTTAPSVFPLAPSCGSQSGSTVALACLVSGYIPEPVTVSWNSVSLTSGVHTFPSVLQSSGLYSLSSMVTVPSSRWPSETFTCNVAHPATNTKVDKPVAKECECKCNCNNCPCPGCGLLGGPSVFIFPPKPKDILVTARTPTVTCVVVDLDPENPEVQISWFVDSKQVQTANTQPREEQSAGTYRVVSVLPIGHQDWLSGKQFKCKVNNKALPSPIEEIISKTPGQAHQPNVYVLPPSRDEMSKNTVTLTCLVKDFFPPEIDVEWQSNGQQEPESKYRMTPPQLDEDGSYFLYSKLSVDKSRWQRGDTFICAVMHEALHNHYTQISLSHSPGK light: DIQMTQSPASLSLSQEEKVTITCRASEDIYNALAWYQQKPGQAPKLLIYNTDTLHTGVPSRFSGSGSGTEYSLTINSLESEDVAVYFCQHYFHYPRTFGAGTKVELKRNDAQPAVYLFQPSPDQLHTGSASVVCLLNSFYPKDINVKWKVDGVIQDTGIQESVTEQDKDSTYSLSSTLTMSSTEYLSHELYSCEITHKSLPSTLIKSFQRSECQRVD		binds			binds
